# PMC6656915, “The MmpL3 interactome reveals a complex crosstalk between cell envelope biosynthesis and cell elongation and division in mycobacteria” (Scientific Reports, 2019)
# T1: MmpL3 from M. tuberculosis, C-terminally hexahistidine-tagged, purified (M. tuberculosis, UniProt P9WJV5 1-944)
# T1 chain: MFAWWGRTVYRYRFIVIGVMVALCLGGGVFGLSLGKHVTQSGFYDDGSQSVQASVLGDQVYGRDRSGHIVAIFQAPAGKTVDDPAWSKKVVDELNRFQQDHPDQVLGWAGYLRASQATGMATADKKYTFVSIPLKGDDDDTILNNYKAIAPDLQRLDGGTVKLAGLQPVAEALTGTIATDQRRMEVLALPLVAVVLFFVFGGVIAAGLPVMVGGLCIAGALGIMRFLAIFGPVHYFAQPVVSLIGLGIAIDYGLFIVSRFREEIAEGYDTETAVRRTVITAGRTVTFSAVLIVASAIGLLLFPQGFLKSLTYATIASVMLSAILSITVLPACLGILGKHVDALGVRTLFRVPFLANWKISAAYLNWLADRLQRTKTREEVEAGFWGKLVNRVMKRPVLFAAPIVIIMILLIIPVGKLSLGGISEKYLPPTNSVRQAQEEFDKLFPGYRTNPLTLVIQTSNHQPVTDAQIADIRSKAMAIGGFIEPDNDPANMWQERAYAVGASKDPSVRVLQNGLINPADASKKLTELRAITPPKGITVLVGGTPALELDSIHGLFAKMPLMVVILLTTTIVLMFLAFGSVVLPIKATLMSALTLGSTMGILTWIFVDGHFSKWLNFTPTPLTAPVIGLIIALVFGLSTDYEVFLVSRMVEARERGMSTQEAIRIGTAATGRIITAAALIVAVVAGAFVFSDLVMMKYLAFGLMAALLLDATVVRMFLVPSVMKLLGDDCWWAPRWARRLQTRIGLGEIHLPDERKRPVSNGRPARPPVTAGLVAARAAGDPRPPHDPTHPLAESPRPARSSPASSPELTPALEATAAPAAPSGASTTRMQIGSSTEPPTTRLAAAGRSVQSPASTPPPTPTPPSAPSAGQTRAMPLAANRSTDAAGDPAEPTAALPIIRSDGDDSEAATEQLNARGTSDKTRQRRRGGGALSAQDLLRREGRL
# T2: MmpL3 protein from M. tuberculosis, C-terminally hexahistidine-tagged, devoid of gfp fusion (M. tuberculosis, UniProt P9WJV5 1-944)
# T2 construct: MmpL3 (Rv0206c), mycolic acid (TMM) transporter of M. tuberculosis; also called MmpL3tb; Rv0206c
# T2 sequence: T1 chain
# B1: AftD from Mycobacterium abscessus, N-terminal 10-histidine tag, purified (natural protein)
# chain: MTYRLDSSALSRRWLAVAAAVSLLLTFSQSPGQISPDTKLDLAINPLRFAARALNLWSSDLPFGQAQNQAYGYLFPHGAFFSLGHLLGVPAWVTQRLWWALLIVAGFWGLIRVAEALGIGTRGSRIIAAVAFALSPRVLTTLGAISSETLPMMLAPWVLLPLILTFQGRMSPRRAAALSAVAVALMGAVNAVATALACGVAVIWWLAHRPNRTWWRFTAWWIPCLALASTWWIVALLIFGKISPKFLDFIESSGVTTQWTSLTEVLRGTDSWTPFVAPTATAGSSLVTQSAMVIATTMLAAAGMAGLAMRGMPARGRLVAVLLIGLVLLTAGYTGALGSPIAQQIQFFLDDGGTPLRNVHKLEPLIRLPLILGLAHALSRIPLPASVPVRQWLSALARPERNRAVAFAIVLLVALAASTSLAWTGRLVPRGGFDAIPGYWNDTAHWLADHDTGGRALVVPGAPFAIQTWGLTRDEPLQALGQTPWGVRDSIPLTPPETIRAIDSVQQLFAAGRPSDGLADTLREQGISYLVVRNDLDPDTSRSARPILVHHTIEGSPGLTKVAQFGDPVGAGAVEGFVADSDLRPQYPAVEIYAVGANDHDGEPYFTDIDTMPRVAGGPEALLRLNERRRQLNEPPLGPSLLATDAAQAGLRPGPAVVTDTPLARETDYGRVDDHSSAIRAPGDKRRTFNRVPDYPATGVPLVNGSWTGGTITASSSASDSTALPNVAPGTSTAAAIDRDNATSWVSSSLEAALGQWIRIDLDRPITNAILTVTPSATALGAQVRRLEVETDNGTTSVRFDEPGQPLNIALRPGETTWVKVTATGTDDGTSGVQFGVTELSLTQYDAAGFAHTVDLRHSATVPPPPAGDNPLGWDLGSPLQGRSGCAPSPQRLRCAATLSLAPEEPGTFIRTLTVPQPVSLTPRLWVRARPGPQLRDLIQQPGTTVATGDSDVIDPQGSSYAATDGDPGTVWTAPQDSVQRLHLPSLVIKLPKPTAIGAIRLRPSRTEVPAHPKQVAINLGDGPQLRSIDPKADVTELALHPSITDTITVTVTDWTDIIDRTALGFDQLKPPGIAEVIALDADHRPIAPADNAANSKRKITIGCNRGPILALAGRFVPMSITATVRELLDGTVIQATPCDTSPIATGAGIQDVTVNPSQQFIVDGVQLTAAATEPASATMTVAPKGAWGPDRREVTAEPSAHERVLAVPESINPGWAARDAQGHLLTPVRVNGWQQGWVLPAGDGGKITLTFGLNTWYRAGLFGGLALLPILACLALLPARGRTTLPPVAPWCAGPAAGVAVLAALTAISGISGMAVGLAALAFKVWTRWPLRAVTAAGVYLAGGSLLLAGAALSRHPWRSVGGYTGHSWWIQLLALISVASVALAAVRLPSRRCWKRRSASREGDSTSA
# B2: Rv0207c from M. tuberculosis H37Rv with C-terminal hexahistidine tag (natural protein)
# chain: MSLTEDVTSQTSESLARHSVLAEDLSQDGLTSLGAPGARVLLVWDAPNLDMGLGSILGRRPTALERPRFDALGRWLLARTAEIVAGRPGISTEPEATVFTNIAPGSAEVVRPWVDALRNVGFAVFAKPKVDEDSDVDRDMLAHIDERYREGLAALVVASADGQAFRQPLEAVARSGTPVQVLGFREHASWALASDTLEFVDLEDIAGVFREPLPRIGLDSLPEQGAWLQPFRPLSSLLTSRV
# notes: Rv0207c, conserved protein of unknown function of M. tuberculosis H37Rv
# B3: CrgA from M. tuberculosis H37Rv with C-terminal hexahistidine tag (natural protein)
# chain: MPKSKVRKKNDFTVSAVSRTPMKVKVGPSSVWFVSLFIGLMLIGLIWLMVFQLAAIGSQAPTALNWMAQLGPWNYAIAFAFMITGLLLTMRWH
# notes: CrgA (Rv0011c), cell division regulatory protein of M. tuberculosis H37Rv; also called Rv0011c
# What was measured:
# [1] = molecular target: MmpL3 protein from M. tuberculosis, C-terminally hexahistidine-tagged, devoid of gfp fusion (M. tuberculosis) (UniProt P9WJV5); assay: SPR; MmpL3 immobilised on CM5 chip; analytes injected at two-fold increasing concentrations from 0.6 µM up to 10 µM, 10 µL/min for 30 sec, dissociation 180 sec, 25 °C; 20 mM HEPES pH 7.4, 150 mM NaCl, 0.2% Triton X-100 (0.03% DDM instead for AftD); global fit to the 1:1 Langmuir binding model
# [2] = molecular target: T1, MmpL3 from M. tuberculosis, …; assay: SPR
# [3] = molecular target: T2, MmpL3 protein from M. tuberculosis, …; assay: SPR; MmpL3 immobilised on CM5 chip; analytes injected at two-fold increasing concentrations from 0.6 µM up to 10 µM, 10 µL/min for 30 sec, dissociation 180 sec, 25 °C; 20 mM HEPES pH 7.4, 150 mM NaCl, 0.2% Triton X-100 (0.03% DDM instead for AftD); global fit to the 1:1 Langmuir binding model; settings: both partners purified
Molecule,Kd [1] [nM],koff [1] [s⁻¹],kon [1] [M⁻¹ s⁻¹],Kd [2] [nM],Kd [3] [nM],koff [3] [s⁻¹],kon [3] [M⁻¹ s⁻¹]
AftD from Mycobacterium abscessus (enzyme),170,0.00335,19400,,,,
B1,,,,172,,,
B2,,,,152,150,0.00227,14900
B3,,,,,470,0.0015,3180
